According to the supplement of paper PMC10065799, “High-throughput profiling of sequence recognition by tyrosine kinases and SH2 domains using bacterial peptide display” (eLife, 2023):

What was measured:
Grb2 SH2 = Grb2 SH2 (UniProt P62993); experiment: SH2 binding enrichment of the phosphorylated peptide, bacterial display (enrichment ratio); higher = better substrate or ligand; peptides without Tyr show the background
c-Src SH2 = experiment: as above
SHP2-C SH2 = experiment: as above
c-Src = experiment: phosphorylation enrichment, bacterial display (enrichment ratio); higher = better substrate or ligand; peptides without Tyr show the background
AncSZ = experiment: as above
EPHB1 = EPHB1 (UniProt P54762); experiment: as above
EPHB1, sequence (P54762 whole entry, looked up): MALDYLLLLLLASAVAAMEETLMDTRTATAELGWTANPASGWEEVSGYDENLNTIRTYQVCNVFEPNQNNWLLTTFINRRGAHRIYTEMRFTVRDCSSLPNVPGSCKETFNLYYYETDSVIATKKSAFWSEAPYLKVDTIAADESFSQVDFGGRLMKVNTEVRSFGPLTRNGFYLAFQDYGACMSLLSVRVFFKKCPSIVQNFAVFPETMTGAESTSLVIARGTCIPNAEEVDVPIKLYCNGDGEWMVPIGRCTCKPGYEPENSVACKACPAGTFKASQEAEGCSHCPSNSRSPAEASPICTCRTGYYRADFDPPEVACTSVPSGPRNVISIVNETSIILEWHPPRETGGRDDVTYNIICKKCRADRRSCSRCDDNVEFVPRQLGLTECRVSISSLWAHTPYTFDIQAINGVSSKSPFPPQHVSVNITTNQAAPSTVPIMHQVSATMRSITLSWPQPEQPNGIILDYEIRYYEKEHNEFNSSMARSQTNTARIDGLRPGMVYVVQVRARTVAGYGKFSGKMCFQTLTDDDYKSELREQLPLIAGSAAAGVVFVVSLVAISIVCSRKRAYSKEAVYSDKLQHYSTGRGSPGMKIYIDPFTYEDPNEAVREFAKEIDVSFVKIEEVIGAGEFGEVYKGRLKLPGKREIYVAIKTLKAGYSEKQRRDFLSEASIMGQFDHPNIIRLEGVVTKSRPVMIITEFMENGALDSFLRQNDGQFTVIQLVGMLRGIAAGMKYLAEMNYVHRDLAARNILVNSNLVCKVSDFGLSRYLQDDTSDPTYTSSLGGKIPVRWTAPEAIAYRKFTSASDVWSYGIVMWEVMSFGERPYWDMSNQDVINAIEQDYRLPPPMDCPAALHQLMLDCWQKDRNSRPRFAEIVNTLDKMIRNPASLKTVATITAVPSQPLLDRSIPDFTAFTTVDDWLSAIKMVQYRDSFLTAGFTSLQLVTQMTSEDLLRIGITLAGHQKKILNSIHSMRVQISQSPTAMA

Fes = Fes (UniProt P07332); experiment: as above
Fyn = Fyn (UniProt P06241); experiment: as above
Jak2 = Jak2 (UniProt O60674); experiment: as above
Jak2, sequence (O60674 whole entry, looked up): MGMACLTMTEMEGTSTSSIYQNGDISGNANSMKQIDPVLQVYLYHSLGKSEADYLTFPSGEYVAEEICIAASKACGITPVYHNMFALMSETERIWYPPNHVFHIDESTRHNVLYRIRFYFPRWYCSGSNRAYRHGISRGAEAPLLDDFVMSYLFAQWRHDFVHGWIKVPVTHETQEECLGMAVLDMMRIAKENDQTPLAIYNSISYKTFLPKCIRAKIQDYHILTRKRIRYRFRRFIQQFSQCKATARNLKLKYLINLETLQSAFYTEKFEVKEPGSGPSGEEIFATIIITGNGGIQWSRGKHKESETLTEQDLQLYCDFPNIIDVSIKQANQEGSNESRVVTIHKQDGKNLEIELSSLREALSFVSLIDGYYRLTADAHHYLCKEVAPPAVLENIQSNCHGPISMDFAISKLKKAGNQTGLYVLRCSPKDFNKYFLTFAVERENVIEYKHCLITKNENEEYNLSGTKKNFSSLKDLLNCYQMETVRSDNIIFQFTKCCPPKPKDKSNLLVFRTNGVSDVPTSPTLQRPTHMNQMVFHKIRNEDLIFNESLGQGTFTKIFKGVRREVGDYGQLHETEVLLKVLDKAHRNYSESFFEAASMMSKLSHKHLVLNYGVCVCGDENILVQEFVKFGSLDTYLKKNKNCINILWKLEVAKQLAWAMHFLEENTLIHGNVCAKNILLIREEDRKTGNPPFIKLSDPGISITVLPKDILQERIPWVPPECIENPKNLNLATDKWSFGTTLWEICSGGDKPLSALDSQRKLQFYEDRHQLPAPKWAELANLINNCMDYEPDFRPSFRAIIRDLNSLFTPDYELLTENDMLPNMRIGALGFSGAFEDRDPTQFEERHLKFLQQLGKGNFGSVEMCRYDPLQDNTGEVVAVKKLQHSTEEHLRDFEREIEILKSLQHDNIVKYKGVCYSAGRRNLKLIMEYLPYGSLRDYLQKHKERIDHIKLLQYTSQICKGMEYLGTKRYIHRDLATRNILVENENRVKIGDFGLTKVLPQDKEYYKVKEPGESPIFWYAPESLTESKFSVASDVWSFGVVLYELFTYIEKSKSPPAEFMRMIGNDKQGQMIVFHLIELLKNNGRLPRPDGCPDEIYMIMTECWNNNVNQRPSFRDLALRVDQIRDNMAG

Hck = Hck (UniProt P08631); experiment: as above
EPHB2 = EPHB2 (UniProt P29323); experiment: as above
FGFR3 = FGFR3 (UniProt P22607); experiment: as above
FGFR3, sequence (P22607 whole entry, looked up): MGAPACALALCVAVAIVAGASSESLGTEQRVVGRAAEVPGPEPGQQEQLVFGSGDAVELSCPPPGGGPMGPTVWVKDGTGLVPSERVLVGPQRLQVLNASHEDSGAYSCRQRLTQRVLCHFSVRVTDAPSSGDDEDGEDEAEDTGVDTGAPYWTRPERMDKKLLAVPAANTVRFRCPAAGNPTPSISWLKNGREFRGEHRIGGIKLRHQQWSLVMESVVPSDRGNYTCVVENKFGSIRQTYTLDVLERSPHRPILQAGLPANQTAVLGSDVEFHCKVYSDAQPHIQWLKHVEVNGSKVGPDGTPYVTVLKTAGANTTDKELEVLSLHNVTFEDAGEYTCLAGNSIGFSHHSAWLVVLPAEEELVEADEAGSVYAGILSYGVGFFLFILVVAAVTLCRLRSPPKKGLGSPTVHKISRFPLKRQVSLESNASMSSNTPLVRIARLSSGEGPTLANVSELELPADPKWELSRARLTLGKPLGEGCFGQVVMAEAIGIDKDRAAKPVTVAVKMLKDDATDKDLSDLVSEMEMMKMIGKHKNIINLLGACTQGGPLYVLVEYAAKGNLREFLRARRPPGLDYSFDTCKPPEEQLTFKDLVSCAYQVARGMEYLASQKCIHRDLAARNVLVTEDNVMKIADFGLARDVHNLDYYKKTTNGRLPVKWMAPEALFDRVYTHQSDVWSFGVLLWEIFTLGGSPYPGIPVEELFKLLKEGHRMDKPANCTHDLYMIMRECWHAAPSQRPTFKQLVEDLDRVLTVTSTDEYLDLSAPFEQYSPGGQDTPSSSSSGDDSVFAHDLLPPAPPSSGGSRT

c-Abl (mouse) = experiment: as above
Fer (mouse) = experiment: as above
FGFR1 = FGFR1 (UniProt P11362); experiment: as above
FGFR1, sequence (P11362 whole entry, looked up): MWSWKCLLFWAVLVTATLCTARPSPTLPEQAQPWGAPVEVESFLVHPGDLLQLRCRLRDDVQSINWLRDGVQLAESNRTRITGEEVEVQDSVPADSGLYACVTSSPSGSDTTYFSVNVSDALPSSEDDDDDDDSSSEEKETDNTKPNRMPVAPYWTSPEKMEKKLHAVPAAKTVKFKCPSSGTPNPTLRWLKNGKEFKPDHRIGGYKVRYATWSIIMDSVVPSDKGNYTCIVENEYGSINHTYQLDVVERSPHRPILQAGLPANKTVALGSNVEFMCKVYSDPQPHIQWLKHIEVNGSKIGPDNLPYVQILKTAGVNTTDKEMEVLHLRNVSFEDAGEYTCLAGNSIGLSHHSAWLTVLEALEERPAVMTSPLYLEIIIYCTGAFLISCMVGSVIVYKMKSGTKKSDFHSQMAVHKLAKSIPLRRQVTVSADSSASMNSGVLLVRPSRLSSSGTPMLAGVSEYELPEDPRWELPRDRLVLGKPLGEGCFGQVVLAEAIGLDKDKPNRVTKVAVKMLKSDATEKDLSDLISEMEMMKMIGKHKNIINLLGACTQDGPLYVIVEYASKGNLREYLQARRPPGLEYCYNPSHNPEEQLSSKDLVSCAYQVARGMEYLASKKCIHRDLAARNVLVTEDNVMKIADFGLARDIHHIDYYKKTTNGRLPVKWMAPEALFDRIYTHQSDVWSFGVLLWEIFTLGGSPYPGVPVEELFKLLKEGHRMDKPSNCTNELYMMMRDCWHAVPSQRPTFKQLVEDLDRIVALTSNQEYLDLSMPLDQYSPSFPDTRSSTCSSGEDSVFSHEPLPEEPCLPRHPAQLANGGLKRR

MERTK = MERTK (UniProt Q12866); experiment: as above
MERTK, sequence (Q12866 whole entry, looked up, the tested form may be a part): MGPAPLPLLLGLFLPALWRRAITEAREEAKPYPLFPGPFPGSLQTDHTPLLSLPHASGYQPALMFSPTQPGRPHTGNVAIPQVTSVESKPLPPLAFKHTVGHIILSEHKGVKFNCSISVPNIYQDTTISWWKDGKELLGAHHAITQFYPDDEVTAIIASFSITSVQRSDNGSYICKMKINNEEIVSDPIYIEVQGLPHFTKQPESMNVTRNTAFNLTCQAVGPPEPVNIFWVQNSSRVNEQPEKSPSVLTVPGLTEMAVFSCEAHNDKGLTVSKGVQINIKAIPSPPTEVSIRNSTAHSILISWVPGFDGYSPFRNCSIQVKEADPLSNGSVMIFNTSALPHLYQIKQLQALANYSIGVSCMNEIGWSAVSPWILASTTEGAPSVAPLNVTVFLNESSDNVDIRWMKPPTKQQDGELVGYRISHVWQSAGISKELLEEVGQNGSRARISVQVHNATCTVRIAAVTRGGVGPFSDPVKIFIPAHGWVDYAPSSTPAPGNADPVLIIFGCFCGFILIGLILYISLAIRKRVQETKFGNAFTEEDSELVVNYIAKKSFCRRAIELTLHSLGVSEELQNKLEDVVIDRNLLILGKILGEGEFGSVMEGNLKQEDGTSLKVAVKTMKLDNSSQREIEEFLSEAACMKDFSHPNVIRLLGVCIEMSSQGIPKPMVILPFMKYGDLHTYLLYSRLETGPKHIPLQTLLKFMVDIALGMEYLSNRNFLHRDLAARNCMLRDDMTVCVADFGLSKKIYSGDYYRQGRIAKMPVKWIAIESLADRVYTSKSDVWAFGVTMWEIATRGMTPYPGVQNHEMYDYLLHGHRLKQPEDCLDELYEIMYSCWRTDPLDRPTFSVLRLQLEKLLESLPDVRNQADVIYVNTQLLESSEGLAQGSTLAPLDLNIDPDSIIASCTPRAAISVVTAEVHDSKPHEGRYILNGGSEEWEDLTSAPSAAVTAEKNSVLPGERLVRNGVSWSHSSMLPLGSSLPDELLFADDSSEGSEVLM
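For SH2 binding enrichment of the phosphorylated peptide, bacterial display in this document: peptide library displayed on the E. coli surface as eCPX fusions, selected cells deep-sequenced, score is each peptide's frequency after selection divided by its frequency in the input.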
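For phosphorylation enrichment, bacterial display in this document: 11-residue human phosphosite peptides and single-mutation variants displayed on the E. coli surface, counted by deep sequencing, each peptide's frequency after selection divided by its frequency in the unselected input library; frequency after pTyr selection over input frequency; kinase dosed for 20-30% of maximal phosphorylation in three min.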

Grb2 SH2, sequence (P62993 whole entry, looked up): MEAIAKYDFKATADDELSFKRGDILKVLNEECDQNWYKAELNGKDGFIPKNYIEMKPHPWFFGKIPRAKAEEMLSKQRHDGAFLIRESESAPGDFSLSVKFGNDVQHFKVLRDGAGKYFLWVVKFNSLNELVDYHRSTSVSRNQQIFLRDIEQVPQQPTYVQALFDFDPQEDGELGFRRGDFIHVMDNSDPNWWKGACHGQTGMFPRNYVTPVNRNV

Sequence	SH2 binding enrichment (Grb2 SH2)	SH2 binding enrichment (c-Src SH2)	SH2 binding enrichment (SHP2-C SH2)	phosphorylation enrichment (c-Src)	phosphorylation enrichment (AncSZ)	phosphorylation enrichment (EPHB1)	phosphorylation enrichment (Fes)	phosphorylation enrichment (Fyn)	phosphorylation enrichment (Jak2)	phosphorylation enrichment (Hck)	phosphorylation enrichment (EPHB2)	phosphorylation enrichment (FGFR3)	phosphorylation enrichment (c-Abl (mouse))	phosphorylation enrichment (Fer (mouse))	phosphorylation enrichment (FGFR1)	phosphorylation enrichment (MERTK)
IHETTHNSIMK [ACTA1_Y281_Y281H]	0.736	0.43	0.537	0.262	0.452	0.304	0.469	0.43	0.471	0.463	0.349	0.39	0.401	0.347	0.425	0.38
ETSHNYHKFDS [MATR3_Y243]	0.623	1.11	0.881	0.475	0.463	0.416	0.551	0.401	0.662	0.395	0.451	0.475	0.61	0.372	0.393	0.393
KVKPIYLHTQG [AR_Y916_F917L]	1.71	1.65	1.84	0.402	0.687	0.496	0.728	0.405	0.61	0.39	0.457	0.612	0.736	0.438	0.441	0.54
ALEHKYWALGQ [MAP1A_Y1555_Q1553H]	0.817	14.8	0.814	1.39	0.859	0.546	0.966	0.801	0.709	0.621	0.539	0.582	0.652	0.492	0.601	0.596
QTEAPYRFIFM [PTPN11_Y511_Q510P_YF]	0.662	0.367	0.751	0.777	1.34	0.728	1.34	0.637	1.55	0.645	0.626	1.98	1.34	4.48	2.71	0.595
ATARPYRPYII [LRP5_Y1528]	1.04	0.784	0.86	0.581	0.675	0.457	0.793	0.55	0.465	0.413	0.362	0.545	0.688	0.482	0.396	0.468
LANNEYFFQVC	0.599	0.611	0.888	1.35	3.75	1.55	2.72	1.4	2.29	0.932	0.804	9.36	1.74	0.939	12.8	0.933
HKANEYYPVVL [ADAMTS18_Y764]	0.902	0.985	0.907	1.65	2.86	1.47	1.22	0.956	9.18	1.95	1.45	15.7	2.49	2.6	23.2	1.13
ELAKYYKLHHI [AK7_Y391_N389K]	0.961	0.748	0.93	0.478	0.884	0.589	0.827	0.41	0.987	0.393	0.562	0.677	0.665	0.461	0.516	0.376
AARVSYRLASG [DCHS1_Y1582]	0.842	0.409	0.759	0.382	0.554	0.352	0.588	0.315	0.428	0.378	0.49	0.392	0.423	0.51	0.354	0.422
ADRNHYRRFRR [YBX1_Y145_P149R_YF]	0.669	0.428	0.659	0.548	0.564	0.462	0.561	0.57	0.579	0.544	0.447	0.721	0.507	0.435	0.509	0.672
VNFQPYRKHKF [TEX37_Y28_D24N_YF]	0.693	0.454	0.528	0.431	0.546	0.34	0.545	0.439	0.408	0.459	0.386	0.371	0.542	0.373	0.365	0.43
ISRASYFRKGG [ALK_Y1282_Y1278S_YF]	0.755	0.45	0.484	0.506	0.664	0.4	0.724	0.419	0.59	0.435	0.37	0.388	0.597	0.456	0.341	0.469
PSRKDYETYQS [CTNND2_Y1154_P1159S]	0.976	0.746	0.899	0.948	0.875	0.827	1.17	0.543	0.94	0.764	1.03	0.704	0.729	0.55	0.539	0.474
INNKMYDPKMN [ENPP1_Y280_D276N]	0.707	0.442	0.69	0.449	0.535	0.44	0.609	0.397	0.556	0.436	0.432	0.491	0.473	0.482	0.389	0.354
RLGDLYKEEMR [VIM_Y150_E151K]	1.09	0.607	0.752	0.587	1.08	0.779	1.17	0.756	0.995	0.824	0.672	0.832	0.762	0.43	0.674	0.362
FADIAYNFRHA [PAH_Y166_G171A_YF]	0.987	0.547	0.903	0.473	0.661	0.293	0.591	0.497	0.524	0.432	0.342	0.462	0.506	0.348	0.386	0.388
